Results from publication PMC2647743 (Bioconjugate chemistry, 2008).
*: point of attachment. DOTA = O=C(O)CN1CCN(CC(=O)O)CCN(CC(=O)*)CCN(CC(=O)O)CC1; Aoc = NCCCCCCCC(=O)O

Molecular target: BB2 receptor (gastrin-releasing peptide receptor) (human (endogenous in PC-3), UniProt P30550 1-384)
Experiment: radioligand binding

BB2 receptor (gastrin-releasing peptide receptor), sequence (P30550 whole entry): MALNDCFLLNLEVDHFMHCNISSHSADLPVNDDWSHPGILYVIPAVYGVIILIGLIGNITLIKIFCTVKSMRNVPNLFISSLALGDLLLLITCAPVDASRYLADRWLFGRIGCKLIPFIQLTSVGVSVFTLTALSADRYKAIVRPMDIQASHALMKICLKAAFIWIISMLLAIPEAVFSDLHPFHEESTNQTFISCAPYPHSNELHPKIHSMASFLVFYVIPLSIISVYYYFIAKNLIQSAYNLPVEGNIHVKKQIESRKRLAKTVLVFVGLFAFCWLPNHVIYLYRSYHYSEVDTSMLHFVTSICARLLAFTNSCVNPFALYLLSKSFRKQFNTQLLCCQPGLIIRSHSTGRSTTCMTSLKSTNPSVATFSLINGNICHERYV

For {DOTA-Aoc}-HMGWLAQV-NH2 (also: In complex of DOTA) [In-DOTA-8-AOC-NONSENSE], which IC50 is on record?
Its IC50 is over 10 µM.

B1: DOTA-8-AOC-NONSENSE (peptide)
peptide: {DOTA-Aoc}-HMGWLAQV-NH2
SMILES: CSCC[C@H](NC(=O)[C@H](Cc1c[nH]cn1)NC(=O)CCCCCCCNC(=O)CN1CCN(CC(=O)O)CCN(CC(=O)O)CCN(CC(=O)O)CC1)C(=O)NCC(=O)N[C@@H](Cc1c[nH]c2ccccc12)C(=O)N[C@@H](CC(C)C)C(=O)N[C@@H](C)C(=O)N[C@@H](CCC(N)=O)C(=O)N[C@H](C(N)=O)C(C)C
B1 was tested. Which IC50 did it give?
Its IC50 is over 10 µM.
